The source of these data is publication PMC3208561, “Phylogenetic and Complementation Analysis of a Single-Stranded DNA Binding Protein Family from Lactococcal Phages Indicates a Non-Bacterial Origin”.

This data set concerns the target T1, Orf14bIL67 (phage SSB) (Lactococcus phage bIL67, UniProt Q38257 1-123).
T1 sequence: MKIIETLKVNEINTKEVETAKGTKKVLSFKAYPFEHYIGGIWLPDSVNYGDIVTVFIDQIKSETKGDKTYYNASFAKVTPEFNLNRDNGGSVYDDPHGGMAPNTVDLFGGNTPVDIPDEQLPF
Kind of data set: EMSA; 30°C; protein up to 100 nM, 0.5 nM DNA; 20 mM Tris-HCl pH 7.5, 25 mM KCl, 1 mM EDTA, 1 mM DTT, 2.5% glycerol, 0.3 mg/ml BSA; 10 min at 30 or 38°C; 5% native PAGE in 0.25x TBE at 4°C. The settings on record: protein: recombinant; tags: IMPACT-CN (intein) purification; label: 5'-32P.

B1: 80-mer oligonucleotide (ssDNA)
DNA: TTTGTCGGTACTTTATATTCTCTTATTACTGGCTCGAAAATGCCTCTGCCTAAATTACATGTTGGCGTTGTTAAATATGGGGG
Consider B1, for which the binding result was “binds”.
